This is an account of results in patent CN117126283A (SHENZHEN NEW IND BIOMEDICAL ENGINEERING CO LTD, dated 2023).

Experiment [1] deals with T1, 纤溶酶原(Plg) (UniProt P00747 20-810).
T1 construct: Free precursor, used as coating antigen in ELISA; also called Plasminogen; 游离态的Plg
In words: summing-up of the examples (ELISA specificity, Example 4; table 2 not shown). Background: In an ELISA, binding on a coated surface is turned into a signal by an enzyme label.

Experiment [2] deals with T2, α2-纤溶酶抑制剂(α2-AP) (UniProt P08697 40-491, limits assumed).
T2 construct: also called α2-antiplasmin; 游离态的α2-AP
T2 sequence (looked up): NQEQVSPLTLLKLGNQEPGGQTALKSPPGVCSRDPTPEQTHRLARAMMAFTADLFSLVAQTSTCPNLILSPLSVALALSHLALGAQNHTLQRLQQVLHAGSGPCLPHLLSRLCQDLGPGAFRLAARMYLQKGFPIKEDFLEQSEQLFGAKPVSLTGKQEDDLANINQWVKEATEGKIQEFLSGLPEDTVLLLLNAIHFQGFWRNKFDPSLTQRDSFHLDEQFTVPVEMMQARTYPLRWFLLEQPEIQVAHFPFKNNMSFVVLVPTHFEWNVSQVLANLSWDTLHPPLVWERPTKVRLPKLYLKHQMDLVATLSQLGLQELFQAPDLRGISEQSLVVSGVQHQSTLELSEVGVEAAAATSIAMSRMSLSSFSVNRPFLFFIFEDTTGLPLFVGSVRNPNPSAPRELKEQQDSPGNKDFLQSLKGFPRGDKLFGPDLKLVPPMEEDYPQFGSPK
Described as above.

For experiment [3], the target named is T3, 纤溶酶-α2纤溶酶抑制剂复合物(PIC) (UniProt P00747 97-810; P08697 40-491, limits assumed).
T3 construct: also called PIC抗原; PIC复合物
In words: SPR (BIAcore 3000), antibody captured by goat anti-mouse IgG Fc on CM5, PIC as analyte. (Surface plasmon resonance follows binding to a sensor surface in real time, without labels.)

T3 sequence (P00747 97-810 limits assumed, one chain of several): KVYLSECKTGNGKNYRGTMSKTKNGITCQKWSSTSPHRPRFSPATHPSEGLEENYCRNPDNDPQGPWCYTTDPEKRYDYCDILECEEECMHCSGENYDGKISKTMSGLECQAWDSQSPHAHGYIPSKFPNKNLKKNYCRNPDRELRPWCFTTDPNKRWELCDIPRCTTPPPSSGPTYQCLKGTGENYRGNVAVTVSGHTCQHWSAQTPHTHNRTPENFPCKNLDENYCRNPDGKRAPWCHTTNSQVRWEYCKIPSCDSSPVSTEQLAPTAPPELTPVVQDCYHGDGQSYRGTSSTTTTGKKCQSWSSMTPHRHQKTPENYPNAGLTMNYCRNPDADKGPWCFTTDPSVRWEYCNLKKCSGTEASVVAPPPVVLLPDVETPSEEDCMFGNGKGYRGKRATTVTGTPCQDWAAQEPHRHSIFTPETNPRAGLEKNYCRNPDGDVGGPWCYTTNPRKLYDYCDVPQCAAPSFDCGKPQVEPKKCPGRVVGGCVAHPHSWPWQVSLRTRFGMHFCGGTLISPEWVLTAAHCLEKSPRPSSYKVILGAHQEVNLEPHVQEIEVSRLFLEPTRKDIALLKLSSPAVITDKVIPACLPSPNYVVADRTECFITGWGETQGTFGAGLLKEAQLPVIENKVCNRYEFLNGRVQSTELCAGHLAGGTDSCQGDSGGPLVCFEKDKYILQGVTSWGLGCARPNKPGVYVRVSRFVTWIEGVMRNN
T1 sequence (P00747 20-810 limits assumed): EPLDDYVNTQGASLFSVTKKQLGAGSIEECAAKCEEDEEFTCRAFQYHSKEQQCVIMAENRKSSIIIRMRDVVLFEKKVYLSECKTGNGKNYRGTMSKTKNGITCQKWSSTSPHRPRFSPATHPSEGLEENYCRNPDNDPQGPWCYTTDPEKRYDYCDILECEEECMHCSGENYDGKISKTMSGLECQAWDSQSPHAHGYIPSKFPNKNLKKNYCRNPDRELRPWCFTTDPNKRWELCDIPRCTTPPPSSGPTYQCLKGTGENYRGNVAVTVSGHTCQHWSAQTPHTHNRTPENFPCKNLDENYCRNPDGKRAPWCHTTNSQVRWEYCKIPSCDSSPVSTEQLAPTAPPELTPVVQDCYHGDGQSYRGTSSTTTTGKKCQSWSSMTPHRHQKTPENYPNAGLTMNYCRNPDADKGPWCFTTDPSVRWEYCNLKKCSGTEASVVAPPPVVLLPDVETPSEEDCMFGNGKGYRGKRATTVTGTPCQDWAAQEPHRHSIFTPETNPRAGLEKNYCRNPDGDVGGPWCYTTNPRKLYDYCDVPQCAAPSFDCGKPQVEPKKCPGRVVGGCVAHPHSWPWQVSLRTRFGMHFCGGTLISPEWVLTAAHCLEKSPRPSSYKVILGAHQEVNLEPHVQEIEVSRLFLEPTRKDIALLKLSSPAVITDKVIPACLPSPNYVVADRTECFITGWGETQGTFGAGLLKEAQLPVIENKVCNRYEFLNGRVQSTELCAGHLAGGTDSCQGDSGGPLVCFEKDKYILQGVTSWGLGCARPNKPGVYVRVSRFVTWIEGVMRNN

B1: PIC抗体(WT1) (antibody, mouse IgG1, kappa, V domains shown)
VH: QVQLQQSGPELVKPGASVKLSCKASGNAFSSSWMNWVKQRPGQGLEWIGRIYPGDGDTNYNGKFKGKATLTVDKSSSTVYMQLSSLTSVDSAVYFCGRGNPTTAYAMDYWGQGTSVTVSS
VL: DIVLTQSPASLAVSLGQRATLSCRASESVDSFGYSFMHWYQQNPGQPPKLLIYRASNLESGIPARFSGSGSRTDFTLTINPVEADDVATYFCQQTNEDPYTFGGGAKLEIKR
notes: that VL1/VH1 belong to 1C2B4 (WT1) follows from the order of naming, not from an explicit sentence; also called 1C2B4; PIC单抗(WT1)
Consider B1, for which the binding result in experiment [1] is listed as “no binding”. In experiment [2], the binding result is “no binding”. For the same molecule, in experiment [3], binding was put at a Kd of 1.29 nM, the koff (usually the first-order rate constant of dissociation) turned out to be 8.54e-05 s⁻¹ and the kon (commonly a measure of how fast the partners come together) turned out to be 65900 M⁻¹ s⁻¹.

B2: PIC抗体(WT2) (antibody, mouse IgG1, kappa, V domains shown)
VH: QVQLQQPGAELVRPGASVKLSCKASGYTFTSSWMHWVKQRPEQGLEWIGYIDPYDSETHYNQKFKDKAILTVDKSSSTAYMQLSSLTSEDSAVYYCARGYDRSFDYWGQGTTLTVSS
VL: DIKMTQSPSSMFASLGERVTITCKASQDIKSFLNWYQQKPWRSPKTLIYYATSLADGVPSRFSGSGSGQDFSLTISSLESDDAATYYCLQHGESPFTFGGGTKLEIKR
notes: That VL2/VH2 belong to 5B3F6 (WT2) follows from the order of naming, not from an explicit sentence; also called 5B3F6; PIC单抗(WT2)
B2: the binding result in experiment [1] is recorded as “no binding”. Moreover, in experiment [2], the binding result is on record as “no binding”. Moreover, in experiment [3], the Kd (as a rule, a measure of binding affinity in units of concentration) came out at 1.21 nM; the koff worked out at 9.54e-05 s⁻¹; the kon stood at 78900 M⁻¹ s⁻¹.
